PMC314469, “Protein Interaction Networks by Proteome Peptide Scanning” (PLoS Biology, 2004)
Values belong to the binder of their own block, whether it stands above or below them.

Molecular target: T1, Abp1 SH3 (ABP1_YEAST), P15891
T1 chain: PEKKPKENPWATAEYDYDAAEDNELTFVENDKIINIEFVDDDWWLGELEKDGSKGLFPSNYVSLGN
Experiment: SPOT array

B1: YDR135C 180-193 (peptide)
chain: SASILLLEALPKKP
- normalised SPOT signal, Boehringer light units (BLU); mean over the file's lines of this peptide: 112

B2: YJR033C 1330-1343 (peptide)
chain: DILDDLSSQKPQKP
- normalised SPOT signal, Boehringer light units (BLU); mean over the file's lines of this peptide: 131

B3: YPR121W 328-341 (peptide)
chain: DESFTASDAVPKKP
- normalised SPOT signal, Boehringer light units (BLU); mean over the file's lines of this peptide: 112

B4: YPR068C 139-151 (peptide)
chain: SINNSEVPTNDKP
- normalised SPOT signal, Boehringer light units (BLU); mean over the file's lines of this peptide: 72.1

B8: YKL020C 937-950 (peptide)
chain: DELPKYEDLFPKKP
- normalised SPOT signal, Boehringer light units (BLU); mean over the file's lines of this peptide: 132

B9: YKL220C 443-456 (peptide)
chain: DDLIRLTVKKPARP
- normalised SPOT signal, Boehringer light units (BLU); mean over the file's lines of this peptide: 446

B11: YPR070W 510-523 (peptide)
chain: DIEMKDVSSKPSKP
- normalised SPOT signal, Boehringer light units (BLU); mean over the file's lines of this peptide: 85.7

B19: YPR186C 218-230 (peptide)
chain: DHPKLKSPISSKP
- normalised SPOT signal, Boehringer light units (BLU); mean over the file's lines of this peptide: 98

B22: YMR003W 182-194 (peptide)
chain: SLWWNLEPQESKP
- normalised SPOT signal, Boehringer light units (BLU); mean over the file's lines of this peptide: 68

B26: YOR066W 218-231 (peptide)
chain: SDTDTLPEAPPAKP
- normalised SPOT signal, Boehringer light units (BLU); mean over the file's lines of this peptide: 108

B30: YDR464W 561-574 (peptide)
chain: DASSVELTEVPSKP
- normalised SPOT signal, Boehringer light units (BLU); mean over the file's lines of this peptide: 25.2

B32: YOL055C 307-320 (peptide)
chain: DESFTASDVIPKKP
- normalised SPOT signal, Boehringer light units (BLU); mean over the file's lines of this peptide: 142

B33: YKL196C 76-89 (peptide)
chain: SGVLITDKEYPVRP
- normalised SPOT signal, Boehringer light units (BLU); mean over the file's lines of this peptide: 56

B34: YPL150W 616-628 (peptide)
chain: DGKVSPPPIRNRP
- normalised SPOT signal, Boehringer light units (BLU); mean over the file's lines of this peptide: 6430

B37: YGL044C 219-231 (peptide)
chain: SKVDDLIPLASRP
- normalised SPOT signal, Boehringer light units (BLU); mean over the file's lines of this peptide: 111

B39: YIL109C 377-389 (peptide)
chain: DIADLEEPFLPRP
- normalised SPOT signal, Boehringer light units (BLU); mean over the file's lines of this peptide: 65.6

B42: YLR077W 535-547 (peptide)
chain: SAKPMNIPEVLKP
- normalised SPOT signal, Boehringer light units (BLU); mean over the file's lines of this peptide: 144

B43: YOR068C 68-80 (peptide)
chain: SSSSSGLPATDKP
- normalised SPOT signal, Boehringer light units (BLU); mean over the file's lines of this peptide: 59.6

B45: YLR374C 54-66 (peptide)
chain: SHTKNTHPDFSKP
- normalised SPOT signal, Boehringer light units (BLU); mean over the file's lines of this peptide: 39.3

B47: YER027C 294-307 (peptide)
chain: DGYTRFHDETPAKP
- normalised SPOT signal, Boehringer light units (BLU); mean over the file's lines of this peptide: 101

B48: YLR281C 14-27 (peptide)
chain: AVLLIKKNKLPPRP
- normalised SPOT signal, Boehringer light units (BLU); mean over the file's lines of this peptide: 9430

B53: YDL156W 333-346 (peptide)
chain: DKKIGSMAINPMRP
- normalised SPOT signal, Boehringer light units (BLU); mean over the file's lines of this peptide: 183

B57: YLR450W 583-596 (peptide)
chain: SVYALSSQDEPIRP
- normalised SPOT signal, Boehringer light units (BLU); mean over the file's lines of this peptide: 37.7

B59: YBR257W 10-23 (peptide)
chain: DSLFTKSLEDPEKP
- normalised SPOT signal, Boehringer light units (BLU); mean over the file's lines of this peptide: 113

Next, values leading:

- normalised SPOT signal, Boehringer light units (BLU); mean over the file's lines of this peptide: 78.4
B5: YIL111W 69-82 (peptide)
chain: AWYISYGEWGPRRP

- normalised SPOT signal, Boehringer light units (BLU); mean over the file's lines of this peptide: 36.5
B6: YKL092C 848-860 (peptide)
chain: DKKDLDSPIEVKP

- normalised SPOT signal, Boehringer light units (BLU); mean over the file's lines of this peptide: 231
B7: YDR096W 741-753 (peptide)
chain: DAGPSFSPLHKKP

- normalised SPOT signal, Boehringer light units (BLU); mean over the file's lines of this peptide: 178
B10: YIL029C 115-127 (peptide)
chain: SSQGINVPGTKKP

- normalised SPOT signal, Boehringer light units (BLU); mean over the file's lines of this peptide: 169
B12: YPL100W 471-484 (peptide)
chain: DDGTFSIYSIPSKP

- normalised SPOT signal, Boehringer light units (BLU); mean over the file's lines of this peptide: 66.6
B13: YAL054C 106-118 (peptide)
chain: DKVFIPDPKTGRP

- normalised SPOT signal, Boehringer light units (BLU); mean over the file's lines of this peptide: 1730
B14: YBL101W-B 1603-1616 (peptide)
chain: DKQLIWHKNKPTKP

- normalised SPOT signal, Boehringer light units (BLU); mean over the file's lines of this peptide: 86.3
B15: YOR175C 203-215 (peptide)
chain: SEMFRDLPESKKP

- normalised SPOT signal, Boehringer light units (BLU); mean over the file's lines of this peptide: 133
B16: YER047C 185-198 (peptide)
chain: DAENIRVNFVPSKP

- normalised SPOT signal, Boehringer light units (BLU); mean over the file's lines of this peptide: 104
B17: YMR147W 118-131 (peptide)
chain: DENEKESRHYPIKP

- normalised SPOT signal, Boehringer light units (BLU); mean over the file's lines of this peptide: 58.4
B18: YOL125W 257-270 (peptide)
chain: DDFSEIKSNSPSKP

- normalised SPOT signal, Boehringer light units (BLU); mean over the file's lines of this peptide: 46.2
B20: YMR244W 79-91 (peptide)
chain: SSYGSWSPYASKP

- normalised SPOT signal, Boehringer light units (BLU); mean over the file's lines of this peptide: 171
B21: YLR410W 340-352 (peptide)
chain: DGKTMTKPFVEKP

- normalised SPOT signal, Boehringer light units (BLU); mean over the file's lines of this peptide: 99.3
B23: YKL103C 202-214 (peptide)
chain: SRIPSLAPHFGKP

- normalised SPOT signal, Boehringer light units (BLU); mean over the file's lines of this peptide: 122
B24: YLR299W 80-93 (peptide)
chain: DHHNIDIDPLPRRP

- normalised SPOT signal, Boehringer light units (BLU); mean over the file's lines of this peptide: 377
B25: YNL023C 749-762 (peptide)
chain: DKTRSSLHFKPMRP

- normalised SPOT signal, Boehringer light units (BLU); mean over the file's lines of this peptide: 120
B27: YOL084W 269-281 (peptide)
chain: DDLETYVPHKKRP

- normalised SPOT signal, Boehringer light units (BLU); mean over the file's lines of this peptide: 2860
B28: YBL005W-B 1588-1601 (peptide)
chain: DKQLIWHKSKPVKP

- normalised SPOT signal, Boehringer light units (BLU); mean over the file's lines of this peptide: 659
B29: YER090W 132-144 (peptide)
chain: DSVRYFEPKTRRP

- normalised SPOT signal, Boehringer light units (BLU); mean over the file's lines of this peptide: 105
B31: YER095W 332-344 (peptide)
chain: DGGMAFNPDPKKP

- normalised SPOT signal, Boehringer light units (BLU); mean over the file's lines of this peptide: 175
B35: YDR407C 928-940 (peptide)
chain: SVRIIKLPTVIKP

- normalised SPOT signal, Boehringer light units (BLU); mean over the file's lines of this peptide: 77.3
B36: YGR271W 1320-1332 (peptide)
chain: DHGLYNFPSSVRP

- normalised SPOT signal, Boehringer light units (BLU); mean over the file's lines of this peptide: 102
B38: YOR056C 307-319 (peptide)
chain: SFKIFPLPKDGKP

- normalised SPOT signal, Boehringer light units (BLU); mean over the file's lines of this peptide: 62.8
B40: YGR013W 516-529 (peptide)
chain: DEGYRESELPPTKP

- normalised SPOT signal, Boehringer light units (BLU); mean over the file's lines of this peptide: 1510
B41: YHR009C 132-144 (peptide)
chain: AYNLNVPPPKKRP

- normalised SPOT signal, Boehringer light units (BLU); mean over the file's lines of this peptide: 90.3
B44: YGL197W 684-696 (peptide)
chain: DEEDDEDPVSPKP

- normalised SPOT signal, Boehringer light units (BLU); mean over the file's lines of this peptide: 118
B46: YLR106C 2240-2252 (peptide)
chain: SSQEDGQPRVLKP

- normalised SPOT signal, Boehringer light units (BLU); mean over the file's lines of this peptide: 138
B49: YGL170C 266-278 (peptide)
chain: DFRNPLLPIDNRP

- normalised SPOT signal, Boehringer light units (BLU); mean over the file's lines of this peptide: 158
B50: YMR153W 198-210 (peptide)
chain: DGKPTATPSPFRP

- normalised SPOT signal, Boehringer light units (BLU); mean over the file's lines of this peptide: 95.6
B51: YLR417W 380-392 (peptide)
chain: DESTVNEPKTRRP

- normalised SPOT signal, Boehringer light units (BLU); mean over the file's lines of this peptide: 18.9
B52: YGR134W 1092-1104 (peptide)
chain: DGKILPLPKADKP

- normalised SPOT signal, Boehringer light units (BLU); mean over the file's lines of this peptide: 324
B54: YPL100W 257-269 (peptide)
chain: SFTAYSSPKKNKP

- normalised SPOT signal, Boehringer light units (BLU); mean over the file's lines of this peptide: 47.1
B55: YCR077C 93-105 (peptide)
chain: DGTAAAGPLDLKP

- normalised SPOT signal, Boehringer light units (BLU); mean over the file's lines of this peptide: 257
B56: YBL015W 191-203 (peptide)
chain: DIDMPVNPPFRKP

- normalised SPOT signal, Boehringer light units (BLU); mean over the file's lines of this peptide: 33.3
B58: YDL215C 852-864 (peptide)
chain: DHVDIFVPSGGRP
